Results on two molecules are retold here after paper PMC7979743 (Nature Communications, 2021).

This assay has as its target ookinete protein Pfs25 (Plasmodium falciparum NF54 (3D7 entry …, UniProt P13829)). Nature of the assay: ELISA; Pfs25 ELISA; series of mAb concentrations, OD 450 nm.

Chain of ookinete protein Pfs25 (Plasmodium falciparum NF54 (P13829 17-196): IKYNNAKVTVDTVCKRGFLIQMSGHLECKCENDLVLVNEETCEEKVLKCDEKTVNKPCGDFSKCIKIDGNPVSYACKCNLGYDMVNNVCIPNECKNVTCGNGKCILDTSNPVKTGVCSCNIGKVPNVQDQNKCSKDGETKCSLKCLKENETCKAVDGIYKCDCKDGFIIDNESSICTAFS

B1: LMIV230-01 human monoclonal antibody (IgG1, kappa) (antibody, V domains shown)
VH: QVQLVQSGAEVKKPGSSVKVSCKVSGGTFNTYAIIWVRQAPGQGLEWMGAIIPFQDRGQYAQKFQGRVTITADKSTSTAYMELSSLRSEDTAVYYCAKESGRAVADRWGQGTLVTVSS
VL: DIVMTQSPASLALSLGERATLYCRASHSISSWLAWYQQKPGKAPKLLIYKASTLESGVPSRFSGSGSGTEFTLTISSLQPDDFATYYCQQYKSYPWTFGQGTKLEIK
On to B1, for which the binding result is given as “no binding”.

B2: LMIV230-02 human monoclonal antibody (IgG1, kappa) (antibody, V domains shown)
VH: QVQLVQSGAEVKKPGSSVKVSCKASGGTFNSYGISWVRQAPGQGLEWVGGIIPSFGTADYAQKFQGRVTFTTDTSTSTAYMEVSSLRSEDTAVYYCAGSSWSSGTYYGRSAYWGQGTLVTVSS
VL: EIVMTQSPASLALSLGERATINCKSSQSVLYSSNNKNYLAWYQQKPGQPPKLLIYWASTRESGVPDRFSGSGSGTDFTLTISSLQAGDVAVYHCQQYYSTPYSFGQGTKLEIK
With B2, the binding result was “no binding”.
